Measured values published in PMC10965980.

Target: mGluR1 (UniProt P97772)
Test: anti-Homer1 IP, mGluR1 western blot
Conditions: reference: wild-type Homer1; sites S117

binding against the reference: stronger
Substance: Homer1 (from UniProt Q9Z2Y3) Homer1 S117A
